Data set [1] relates to Nc1ccn([C@H]2C[C@H](O)[C@@H](CO)O2)c(=O)n1. Put plainly: purified protein. It is filed as biochemical, Mesomycoplasma hyorhinis. As to conditions: PBS, 37 °C, 10 min, 4 nM enzyme.
Data set [2] relates to Nc1ccn([C@@H]2O[C@H](CO)[C@@H](O)C2(F)F)c(=O)n1. The experiment in a line: purified protein. The settings on record: PBS, 37 °C, 10 min, 4 nM enzyme, fit up to 30 mM substrate, second KM at very high concentrations not determined. It is filed as biochemical, Mesomycoplasma hyorhinis.

One may read the Km as the concentration of substrate that gives half-maximal velocity. Broadly, the kcat is the maximal rate divided by the concentration of active sites. Usually kcat/Km stands for the turnover number divided by the Michaelis constant.

In the case of “CDAHyor (M. hyorhinis cytidine deaminase) (Mesomycoplasma hyorhinis MCLD)”, in data set [1], the Km came to 2.586 ± 0.114 mM, the kcat was found to be 127 ± 2 s⁻¹ and the specificity constant (kcat/Km) came to 49000 M⁻¹ s⁻¹. For the same substance, in data set [2], the Km worked out at 9.064 ± 1.487 mM, the kcat worked out at 105 ± 7 s⁻¹ and the kcat/Km worked out at 12000 M⁻¹ s⁻¹.
